Tests used:
新冠病毒RBD抗原 (表达的RBD蛋白) = 新冠病毒RBD抗原 (表达的RBD蛋白) (SARS-CoV-2, UniProt P0DTC2 319-541)
RBD-tag1 = RBD-tag1 (SARS-CoV-2, UniProt P0DTC2 319-541)

B1: 23D52 (antibody, V domains shown)
VH: EVQLVESGGGLVQPGGSLRLSCAASGITVSSNYMNWVRQAPGKGLEWVSVLYSGGSTDYADSVKGRFTISRDNSKNTLYLQMNSLRAEDTAVYYCARDLVVYGMDVWGQGTTVTVSS
VL: DIQLTQSPSFLSASVGDRVTITCRASQGISSYLAWYQQTPGKAPKLLIYAASTLQSGVPSRFSGSGSGTEFTLTISSLQPEDFATYYCQQLNSYPFTFGPGTKVHIK
notes: also called 抗人新冠病毒抗体23D52
新冠病毒RBD抗原 (表达的RBD蛋白)
  EC50: 0.0299 µg/mL
RBD-tag1
  IC50: 0.111 µg/mL

— CN112500481A (SHANXI PROVINCIAL PEOPLES HOSPITAL, dated 2021)
